The text below walks through data of PMC6057269 (2018).

B1: GST-tagged ITSN1 SH3d (aa1076-1138), wild type [human] / FCHSD2 SH3-2 (aa568-629), recombinant [human] (parent complex)
chain 1: PEIAQVIASYTATGPEQLTLAPGQLILIRKKNPGGWWEGELQARGKKRQIGWFPANYVKLLSP
chain 2: SVCFVKALYDYEGQTDDELSFPEGAIIRILNKENQDDDGFWEGEFNGRIGVFPSVLVEELSA
B2: GST-tagged FCHSD2 SH3-2 (aa568-629), wild type [human] / ITSN1 SH3d (aa1076-1138), recombinant [human] (parent complex)
chain 1: B1 chain 2
chain 2: B1 chain 1

The variants in one assay derive from B1. Nature of the assay: GST pull-down, Coomassie stained gel, band quantification; n = 3 experiments, mean ± SD; parent: 1; read off a plot.
For the variant chain 1 I3K, the ratio to parent was roughly 0.08.

As to chain 1 I3S, the ratio to parent was roughly 0.08.

Turning to chain 1 R48E, the ratio to parent was roughly 0.4.

For chain 1 R44E, the ratio to parent was roughly 0.08.

In the case of chain 1 R44A, the ratio to parent was roughly 0.08.

For the variant chain 1 T11A, the ratio to parent was roughly 1.1.

Variants of B2 are the subject of the next assay. Described as above.
For chain 1 V55K, chain 1 L56K, the ratio to parent is roughly 0.1.

Regarding chain 1 D16A, the ratio to parent was roughly 1.1.

On to chain 1 F40S, for which the ratio to parent is roughly 0.3.

chain 1 N46A: the ratio to parent is roughly 1.2.

Consider chain 1 Y9S, for which the ratio to parent is roughly 0.45.

On to chain 1 Y9S, chain 1 F40S, for which the ratio to parent is roughly 0.15.

As to chain 1 V55S, the ratio to parent was roughly 0.8.

With chain 1 D17K, the ratio to parent was roughly 0.9.
